Experimental data published in patent US20050037969A1 (ARBOR VITA, published 2005).
Ends that are not written are not given here. * marks the point of attachment. Biotin = O=C1N[C@H]2[C@H](CS[C@H]2CCCCC(=O)*)N1

T1: GST-CASK PDZ domain fusion protein (Homo sapiens, UniProt O14936 486-575)
T1 construct: also called Homo sapiens CASK protein
T1 sequence: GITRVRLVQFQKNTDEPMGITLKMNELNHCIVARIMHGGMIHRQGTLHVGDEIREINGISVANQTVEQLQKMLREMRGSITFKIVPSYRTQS

T2: GST-TAX-IP43 PDZ domain fusion protein (human, UniProt Q13884 109-180)
T2 construct: also called TAX43; not shown: glutathione S-transferase encoded by vector pGEX-3X (Pharmacia)
T2 sequence: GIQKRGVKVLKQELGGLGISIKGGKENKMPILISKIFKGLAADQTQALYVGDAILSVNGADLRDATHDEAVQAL

T3: GST-TAX-IP2 PDZ domain fusion protein (human, UniProt O14908 129-216)
T3 construct: also called TAX-1P2; TAX2; not shown: glutathione S-transferase encoded by vector pGEX-3X (Pharmacia)
T3 chain: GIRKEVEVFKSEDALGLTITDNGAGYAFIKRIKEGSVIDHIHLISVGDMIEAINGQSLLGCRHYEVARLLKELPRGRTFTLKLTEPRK

T4: GST-PTN-4 PDZ domain fusion protein (Homo sapiens (Human), UniProt P29074 517-605)
T4 construct: also called protein-tyrosine phosphatase meg1; not shown: glutathione S-transferase encoded by vector pGEX-3X (Pharmacia)
T4 sequence: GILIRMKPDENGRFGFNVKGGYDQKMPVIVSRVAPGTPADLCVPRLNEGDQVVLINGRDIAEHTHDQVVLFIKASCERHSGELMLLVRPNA

T5: GST-MPP1 PDZ domain fusion protein (Homo sapiens (Human), UniProt Q00013 67-152)
T5 construct: also called p55; 55 Kd erythrocyte membrane protein; not shown: glutathione S-transferase encoded by vector pGEX-3X (Pharmacia)
T5 sequence: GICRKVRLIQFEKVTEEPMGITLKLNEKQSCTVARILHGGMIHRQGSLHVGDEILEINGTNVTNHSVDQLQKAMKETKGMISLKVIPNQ

T6: GST-prIL16 fusion protein (PDZ domains 1-2) (Homo sapiens (Human), UniProt Q14005 1111-1324)
T6 construct: also called putative interleukin 16 precursor; not shown: glutathione S-transferase encoded by vector pGEX-3X (Pharmacia)
T6 sequence: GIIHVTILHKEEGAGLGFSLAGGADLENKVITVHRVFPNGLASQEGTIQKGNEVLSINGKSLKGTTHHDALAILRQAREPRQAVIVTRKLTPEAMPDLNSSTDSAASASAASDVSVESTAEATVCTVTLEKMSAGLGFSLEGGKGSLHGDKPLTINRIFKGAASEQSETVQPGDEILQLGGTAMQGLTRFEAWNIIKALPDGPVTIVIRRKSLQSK

T7: GST-cytohesin binding protein PDZ domain fusion protein (Homo sapiens (Human), UniProt O60759 74-165)
T7 construct: also called CBP; not shown: glutathione S-transferase encoded by vector pGEX-3X (Pharmacia)
T7 sequence: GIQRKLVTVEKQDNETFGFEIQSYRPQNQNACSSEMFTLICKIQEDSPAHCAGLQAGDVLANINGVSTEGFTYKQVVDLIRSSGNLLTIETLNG

T8: GST-AF6 PDZ domain fusion protein (Homo sapiens (Human), UniProt P55196 1001-1093)
T8 construct: also called af-6 protein; not shown: glutathione S-transferase encoded by vector pGEX-3X (Pharmacia)
T8 sequence: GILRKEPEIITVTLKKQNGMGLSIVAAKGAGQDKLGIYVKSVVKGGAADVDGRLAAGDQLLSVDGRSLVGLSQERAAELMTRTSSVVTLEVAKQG

T9: GST-RGS12 PDZ domain fusion protein (human, UniProt O14924 17-85)
T9 construct: also called human regulator of G-protein signalling 12; not shown: glutathione S-transferase encoded by vector pGEX-3X (Pharmacia)
T9 sequence: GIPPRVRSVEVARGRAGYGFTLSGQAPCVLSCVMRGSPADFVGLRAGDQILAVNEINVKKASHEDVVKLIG

T10: GST-mouse syntenin fusion protein (Mus musculus, UniProt O08992 108-286)
T10 construct: also called Mus musculus Syntenin; not shown: glutathione S-transferase encoded by vector pGEX-3X (Pharmacia)
T10 chain: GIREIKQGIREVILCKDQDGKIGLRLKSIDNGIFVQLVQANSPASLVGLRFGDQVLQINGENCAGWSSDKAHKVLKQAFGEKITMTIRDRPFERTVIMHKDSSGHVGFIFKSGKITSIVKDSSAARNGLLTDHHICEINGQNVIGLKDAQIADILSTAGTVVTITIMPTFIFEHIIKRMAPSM

T11: X11β PDZ-GST fusion protein (Rattus norvegicus (Rat), UniProt O35431 560-745)
T11 construct: Order of GST and PDZ part and limits not seen in the excerpts
T11 chain: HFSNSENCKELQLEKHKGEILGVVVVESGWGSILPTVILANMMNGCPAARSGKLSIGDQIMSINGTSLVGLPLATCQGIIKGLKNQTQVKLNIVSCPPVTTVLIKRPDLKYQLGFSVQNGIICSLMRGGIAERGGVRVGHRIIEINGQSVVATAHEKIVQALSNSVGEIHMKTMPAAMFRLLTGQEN

T12: K858 PDZ-GST fusion protein (Homo sapiens (Human), UniProt Q8WWI1 1038-1131)
T12 construct: Order of GST and PDZ part and limits not seen in the excerpts
T12 sequence: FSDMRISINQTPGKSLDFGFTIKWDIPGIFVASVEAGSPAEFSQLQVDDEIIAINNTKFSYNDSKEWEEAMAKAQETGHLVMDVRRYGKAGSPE

T13: ConEn PDZ-GST fusion protein (Homo sapiens (Human), UniProt Q969H4 193-287)
T13 construct: The label ConEn is not explained in the excerpts
T13 sequence: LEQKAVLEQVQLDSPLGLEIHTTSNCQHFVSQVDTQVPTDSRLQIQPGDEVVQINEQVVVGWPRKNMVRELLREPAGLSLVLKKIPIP

B1: CD6 C-terminal peptide AA6L, biotinylated (peptide)
peptide: Biotin-SPQPDSTDNDDYDDISAA
B2: CD34 C-terminal peptide AA7L, biotinylated (peptide)
peptide: Biotin-QATSENGHSARQHVVADTEL
B3: CD49F C-terminal peptide AA12L, biotinylated (peptide)
peptide: Biotin-HKAEIHAQPSDKERLTSDA
notes: also called CD49F (Aform, alpha6)
B4: Clasp-2 C-terminal peptide AA2L, biotinylated (peptide)
peptide: Biotin-ISGTPTSTMVHGMTSSSSVV

These binders were tested against T1, GST-CASK PDZ domain fusion protein (assay: A/G assays).

Row | binding result | Binder
1 | no binding | B1
2 | no binding | B2
3 | no binding | B3
4 | no binding | B4

What follows are binders tested against T2, GST-TAX-IP43 PDZ domain fusion protein (assay: A/G assays).

Row | binding result | Binder
5 | no binding | B1
6 | no binding | B2
7 | no binding | B3
8 | no binding | B4

Biological target: T3, GST-TAX-IP2 PDZ domain fusion protein
Assay: A/G assays

Row | binding result | Binder
9 | no binding | B1
10 | no binding | B2
11 | no binding | B3
12 | no binding | B4

What follows are binders tested against T4, GST-PTN-4 PDZ domain fusion protein (assay: A/G assays).

Row | binding result | Binder
13 | no binding | B1
14 | no binding | B2
15 | no binding | B3
16 | no binding | B4

Each binder was assayed against T5, GST-MPP1 PDZ domain fusion protein (assay: A/G assays).

Row | binding result | Binder
17 | no binding | B1
18 | no binding | B2
19 | no binding | B3
20 | no binding | B4

What follows are binders tested against T6, GST-prIL16 fusion protein (PDZ domains …) (assay: A/G assays).

Row | binding result | Binder
21 | no binding | B1
22 | no binding | B2
23 | no binding | B3
24 | no binding | B4

Each binder was assayed against T7, GST-cytohesin binding protein PDZ … (assay: A/G assays).

Row | binding result | Binder
25 | no binding | B1
26 | no binding | B2
27 | no binding | B3
28 | no binding | B4

What follows are binders tested against T8, GST-AF6 PDZ domain fusion protein (assay: A/G assays).

Row | binding result | Binder
29 | no binding | B1
30 | no binding | B2
31 | no binding | B3
32 | no binding | B4

These binders were tested against T9, GST-RGS12 PDZ domain fusion protein (assay: A/G assays).

Row | binding result | Binder
33 | no binding | B1
34 | no binding | B2
35 | no binding | B3
36 | no binding | B4

Biological target: T10, GST-mouse syntenin fusion protein
Assay: A/G assays

Row | binding result | Binder
37 | no binding | B1
38 | no binding | B2
39 | no binding | B3
40 | no binding | B4

Biological target: T11, X11β PDZ-GST fusion protein
Assay: A/G assays

Row | binding result | Binder
41 | no binding | B1
42 | no binding | B2
43 | no binding | B3
44 | no binding | B4

Each binder was assayed against T14, PICK1 PDZ-GST fusion protein (Bos taurus (Bovine), UniProt Q2T9M1 17-105) (assay: A/G assays).
T14 construct: Order of GST and PDZ part and limits not seen in the excerpts
T14 sequence (Q2T9M1 other isoform, or with tags, fused parts or gaps limits assumed): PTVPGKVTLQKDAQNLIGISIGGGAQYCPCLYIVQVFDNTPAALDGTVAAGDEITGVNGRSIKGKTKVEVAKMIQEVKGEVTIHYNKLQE

Row | binding result | Binder
45 | no binding | B1
46 | no binding | B2
47 | no binding | B3
48 | no binding | B4

Each binder was assayed against T15, K316 PDZ-GST fusion protein (Homo sapiens (Human), UniProt Q14CM0 72-159) (assay: A/G assays).
T15 construct: Order of GST and PDZ part and limits not seen in the excerpts
T15 sequence (Q14CM0 72-159 limits assumed): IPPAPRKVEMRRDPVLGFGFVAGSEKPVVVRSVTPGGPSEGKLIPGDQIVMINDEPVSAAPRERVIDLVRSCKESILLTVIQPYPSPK

Row | binding result | Binder
49 | no binding | B1
50 | no binding | B2
51 | no binding | B3
52 | no binding | B4

These binders were tested against T12, K858 PDZ-GST fusion protein (assay: A/G assays).

Row | binding result | Binder
53 | no binding | B1
54 | no binding | B2
55 | no binding | B3
56 | no binding | B4

Each binder was assayed against T13, ConEn PDZ-GST fusion protein (assay: A/G assays).

Row | binding result | Binder
57 | no binding | B1
58 | no binding | B2
59 | no binding | B3
60 | no binding | B4
